# In the DeepSol protein solubility set:
# Assay: soluble on expression in E. coli; label from the status in PepcDB or PDB records
row,Sequence,soluble on expression in E. coli
1,GPGSMPVEREVITLAFGNYSSLVAAQWANGTSHYDAHHSTLYSECRSADVLGGGSSGNGRVRVPRLLLLDAPYASAFDDIDVWARKYKDDAKIGEEGDAAYNPSEASPSPVHRGDATEEKDHLFASVVKAVQRHVFEQHGLDDDDSHGGNDDAGGADDAQNDDGEDADAHLLDEDEEDDVSKNAGRRGSATIPHSRAQRQARLKRKLFDEHNTTIPWWQYITTGLGPNSVTSVKPLQHVDAAGDLPALHSFGYGLAYLRDGGRSSEVVDLNDALRRNLEAADQLQGIQCFTDGDGLFGGAAANVLEQLWEDAGPKTPVVQACSFARLPALVADPAYRAEVAFRERRMDEVALNQLLATLHLSRHTSAVYIPVPLSDWDVLFKGAATAASPTEAPPWLQDERATAQLLAAVIDTALYGLRDGSRASGVSSQGPQWYMDEWCRVVRPAPSLRVAAAMGALPQSVSASSELWEFLQANPLLPDAPQLDERMVRANDSAEDDASSGQARQQAKFFPLTHTMSTYSTAHTAGQVLGHVASLRGAGCLPATVYPAREAMLRYALPLRTSTYLPLVTEVSYPISDTFPTELLFADPAAMAKVPGGASGSGGSEGITSLRRVLQSVDVGAHVLSTYATAPMLHDISTKAQAALRNKMDRYCDAYVMEKDDWREALDEGLALFDDYNHAPLSDAQDGGGSDGDDY,not soluble
2,MTHPIIHDLENRYTSKKYDPSKKVSQEDLAVLLEALRLSASSINSQPWKFIVIESDAAKQRMHDSFANMHQFNQPHIKACSHVILFANKLSYTRDDYDVVLSKAVADKRITEEQKEAAFASFKFVELNCDENGEHKAWTKPQAYLALGNALHTLARLNIDSTTMEGIDPELLSEIFADELKGYECHVALAIGYHHPSEDYNASLPKSRKAFEDVITIL,soluble
3,GSFTMSYCRQEGKDRIIFVTKEDHETPSSAELVADDPNDPYEEHGLILPNGNINWNCPCLGGMASGPCGEQFKSAFSCFHYSTEEIKGSDCVDQFRAMQECMQKYPDLYPQEDEDEEEEREKKPAEQAEETAPIEATATKEEEGSS,soluble
4,MGSDKIHHHHHHMELKKLMEHISIIPDYRQTWKVEHKLSDILLLTICAVISGAEGWEDIEDFGETHLDFLKQYGDFENGIPVHDTIARVVSCISPAKFHECFINWMRDCHSSDDKDVIAIDGKTLRHSYDKSRRRGAIHVISAFSTMHSLVIGQIKTDEKSNEITAIPELLNMLDIKGKIITTDAMGCQKDIAEKIQKQGGDYLFAVKGTQGRLNKAFEEKFPLKELNNPEHDSYAISEKSHGREEIRLHIVCDVPDELIDFTFEWKGLKKLCVAVSFRSIIAEQKKEPEMTVRYYISSADLTAEKFATAIRNHWHVENKLHWRLDVVMNEDDCKIRRGNAAELFSGIRHIAINILTNDKVFKAGLRRKMRKAAMDRNYLASVLAGSGLS,not soluble
5,MAASLGLAAAAASAWAQAPAMDHGSMPGMDHGAAPASAMDHGSMPGMDHGAAPAPAIGALPSSDGAGDQSYAAYGIHSHMMDDMATSQLLFDKLGMTYDRDRRTGLQWDGQFWVGRDLDKLWIKSEGERVGGRSDGKVEAFWNRTISPFWDLQVGARRDFGTGPKRNWGAIGLQGVAPYNIETEVTAYVGGSGRTALALKAEYDLLLTQRLVLTPEIEASVYGKDDKARGIGAGLSDASFSLRLRYEITREVAPYVGVSFGRKFGRTASYASEEGESRSERAIMAGVRIWFLEHHHHHH,not soluble
6,MFDSTLNPLWQRYILAVQEEVKPALGCTEPISLALAAAVAAAELEGPVERVEAWVSPNLMKNGLGVTVPGTGMVGLPIAAALGALGGNANAGLEVLKDATAQAIADAKALLAAGKVSVKIQEPCDEILFSRAKVWNGEKWACVTIVGGHTNIVHIETHDGVVFTQQACVAEGEQESPLTVLSRTDAG,not soluble
7,MGSDKIHHHHHHMIDELRAMAIFAETIKQGSFRAAAKELKLSPSVVSYQVTQLEKSVGTALIYRSTRKLSLTSEGGVLYQYALNMIQAAQQGLNQVAIEKQELRGTLTLTLPSALIKSEISKKISQFSKLHPFLNFKLFYTDDRQDLIHQGIDLAFRAGSMDDSNLKSKRVGEINRKLVCSYDYWKENIPPISPQDLTTWNWIKLDMLPNHRTLVNSAGEKCDIDFESNISVNNVEAMTQLCINGAGIATPPDYLIEKEIENNALVELLPNWQVESIPLYAVWPSNVFQNSSVKRLLEFLI,not soluble
8,MAHHHHHHMGTLEAQTQGPGSMDKTLDKQVAIVTGASRGIGRAIALELARRGAMVIGTATTEAGAEGIGAAFKQAGLEGRGAVLNVNDATAVDALVESTLKEFGALNVLVNNAGITQDQLAMRMKDDEWDAVIDTNLKAVFRLSRAVLRPMMKARGGRIVNITSVVGSAGNPGQVNYAAAKAGVAGMTRALAREIGSRGITVNCVAPGFIDTDMTKGLPQEQQTALKTQIPLGRLGSPEDIAHAVAFLASPQAGYITGTTLHVNGGMFMS,soluble
9,MAGDTTITVVGNLTADPELRFTPSGAAVANFTVASTPRMFDRQSGEWKDGEALFLRCNIWREAAENVAESLTRGSRVIVTGRLKQRSFETREGEKRTVVEVEVDEIGPSLRYATAKVNKASRSGGGGGGFGSGGGGSRQSEPKDDPWGSAPASGSFSGADDEPPF,soluble
10,AIAPSDLAKKKAAKKKEAAKARGRTRKPEDGVNGDAEKPEIQENGAAEVNGVDSLAKELDEFELKKTEARAVTGVLASHPNSTDVHISSLSLTFHGQELLSDTSLELNSGRRYGLIGLNGTGKSMLLSAISHREVPIPEHIDIYHLTREMAPSEKTALQCVMEVDEERIKLEKEAERLAHEDSECEKLMELYERLEELDADKASMRASRILHGLGFTTSMQQKKLKDFSGGWRMRVALARALFLKPFMLLLDEPTNHLDLDACVWLEEELSQFKRILVLISHSQDFLNGVCTNIIHLHQRKLKYYTGNYDQYVKTREELEENQMKRFNWEQDQIAHMKNYIARFGHGSAKLARQAQSKEKTLQKMVASGLTERVVNDKTLSFYFPPCGKIPPPVIMVQNVSFRYSENTPYIYKNLEFGIDLDTRVALVGPNGAGKSTLLKLLTGELLPSDGMIRKHSHVKIGRYHQHLTEQLELDLSPLEYMMKCYPEIKEKEEMKKIIGRYGLTGKQQVSPIRNLSDGQKCRVCFAWLAWQNPHMLFLDEPTNHLDIETIDALAEAINDFEGGMMLVSHDFRLIQQVAQEIWVCEKQTITKWSRDILAYKEHLKSKIDKQMHDL,soluble
11,MDLPVMPPVKPMLAKSVAKIPPGMHYEAKWDGFRAIVYRDGDEVELGSRTGKPLTRYFPELVVAVRERLPERCVVDGEIVIARDGHLDFDALTERIHPADSRVRTLAERTPASLVAFDLLALDDASLLDVGLADRRALLVRALSGVTPPVHVAPATDDIEVARRWFEQYEGAGLDGVVAKPLDLRYRQDERAMYKIKHERTADVVVAGYRFHKSGPVVGSLLLGLYDDRGLLQHVGVSAAFTMKRRAELVAELEPLRMDDARGHPWAAWAEEAAHESARLPGAPSRWSGKKDLSWVPLRPERVVEVAYDHMENGARFRHTARFRRWRPDRTPESCTYAQLEEPVRYDLAEILGGPLEHHHHHH,not soluble
12,MIRLVIVEPEGSYNLGFISRLAKNFLVDELYIVNPHCDLEEAKKFSAKGLEYLEKAKIVNNFDEAIKDVELKIATSSIADIKGDILRKSIRPWELPRIIEGKKVALIFGRESVGLTREEIAKSDLLLFIPGNPEYPVLNLSHAVGIVLYEIWKSRGENKPVISGEAISLIDKYSRDLVNLIKSNEGDEAMYIALKRALIKGIGDEEEARTIIRLLRKLYIKLTRKIE,soluble
13,MKQVKITTTSDLINGGCNACPNVKCTNYLVHVEDETIALETLTVADLVTLLALKEGFRQKLVMEMFEEYTVFERETHQVVFKEEETRILFQSKKQTIQSTLLCKEPQQVFQETQQILHQLFELEPFEFELVEETDE,not soluble
14,MFVLSIALLSCTTLCAATTEWWGDLRAHLNPARQAPFYDVTYDEKVNVCPQGLHADAIPEYVYFGTMLATMTVDEHDQCLQKCAEKPRCKAVNFFHPFAYQEKGFCELLTEGQLDNPSLMRPFRKATYYEKIRCRELDDVEDVEEAAPIGSEITEKLPEDMAREKKLDMSKLMKKLSAKVKEFNGGAGGFRAAR,not soluble
15,AGVNDDMPLKECYRTMWLNIWNLAGSNLNAISNRVQYDSLPCTTRNKTWELERKMFAQVDRLFNQGKEEGVFKPLDNEVLSGLSFEASVALARKHALGFYQLDDDALEAAIEASWDAIIKH,not soluble
16,ENSVFFGKKKKVSLHLLVDPDMKDEIIKYAQEKDFDNVSQAGREILKKGLEQIA,soluble
17,MESNNGIILRVAEANSTDPGMSRVRLDESSRRLLDAEIGDVVEIEKVRKTVGRVYRARPEDENKGIVRIDSVMRNNCGASIGDKVKVRKVRTEIAKKVTLAPIIRKDQRLKFGEGIEEYVQRALIRRPMLEQDNISVPGLTLAGQTGLLFKVVKTLPSKVPVEIGEETKIEIREEPASEVLEEGG,soluble
18,MGSDKIHHHHHHMVTYVIQGILKEEEDRMVRRSFLIKGNEIAYVNGRLDKLTFIRMNGDQFCMAPGRVMNNDELETNLSISSFKKTLTSMIEKGCTSVVYFASANYERQLPFVIKQAYHRMNNSFIDYVIGLSLPAHLLRPSVLRFCKKEKIPVLRFSLQSIDDLYDVPWSRLQDVLYSYPIVLLPNMNELLEGERKLAEDLWVSLCEAHRIYGTTHPPNSLEAWPKTLLKLVGLYPKKGELRVGGDADYLLYYVARTNATLAETCDLDYDRDKPNVVVLRGSVLKANEVTSIRPGGGRRIRITRPGQFIPVSEASHWGM,not soluble
19,QVQLVESGGGLVQPGGSLRLSCAASGFTFNSYWINWVRQAPGKGLEWVSGIAYDSSNTLYADSVKGRFTISRDNSKNTLYLQMNSLRAEDTAVYYCARGLGAFHWDMQPDYWGQGTLVTVSSASTKGPSVFPLAPSSKSTSGGTAALGCLVKDYFPEPVTVSWNSGALTSGVHTFPAVLQSSGLYSLSSVVTVPSSSLGTQTYICNVNHKPSNTKVDKKVEPKSCDKTH,soluble
20,MGSDKIHHHHHHMRILYYDCFCGISGDMNLAALVDLGVPKKYLIDELLKLNLGSEYEIKIEKGQKLGITGTRVDVILKDEHHNKHELEEVLHNHEHKHNHHEIKNDEPAHSHEHHHRSLRDIEEIINSSTLNDKVKKLSLNIFMKVAEAEAKVHGRELYEVHFHEVGAVDSIVDIVGAAICIDYLKVDKILASRVQVGGGFVRCAHGIMPVPAPATVEILKNIPINTGIVQFETTTPTGAAILAANVKEFTQKLDFIIKKTAYGIGHRDLEIPNVLRVYLGEEESFQDIENQYILETNIDDMNPEIYGYVEEKLFKVGALDVFKTPICMKKGRPGIKLSVLTNEKSEREVLDVIFEETTSIGVRRYKVEKIMLKREFSKVKTEFGDITVKKAYYKGELVKYKPEYEECKDIAREKNVSIHKVYKAVYKQDLK,not soluble
21,QTIRSASDIRDVFINAGIKGEEYDAAWNSFVVKSLVAQQEKAAADVQLRGVPAMFVNGKYQLNPQGMDTSNMDVFVQQYADTVKYLSEKKGGGTGAQYEDGKQYTTLEKPVAGAPQVLEFFSFFCPHCYQFEEVLHISDNVKKKLPEGVKMTKYHVNFMGGDLGKDLTQAWAVAMALGVEDKVTVPLFEGVQKTLIK,soluble
22,MSLLKQKITQAPKTKISQTLRSWLPILQANIEDLKENLDKFAEDNPFLNVQDSIQTHDKGKNYFDSFYKHNVNSAFVDSKGLAKKSVYELLNEQILPPLFPTNKSQELAKKIIECLNEEGYFEYDEEFLKEYSLEEIERVRARFKFLDPVGVGAKDYKEAFLFALENMELDEDIDEFCRMLIMDFENIQNYTKEPLYKEALAVLKRFSTPPFLEYFEDSRIIVPDIFVYKENGEIKVKINDDYYPEISIQTDGLEHDFLSHYIKEAKNLVDALAMRKATLYKIGLMIVEYQYDFFMGKEIKPMTFKDLALDLERNASTISRAVANKYLSCERGLIPLRDFFAFALDEEGETSNVGVKEFVANLVKNEDRNKPLSDSKILELIKEEFKVDIGRRTITKYRKHLNIASSTDRKKLYELEGEGHHHHHH,soluble
